Numbering of substitutions follows the chain as printed. One block for each binder: values may come before it.
What was measured:
[1] = molecular target: T1, HER2 (UniProt P04626 23-652, limits assumed); experiment: SPR (Biacore 8K), as in Example 1
T1 construct: also called antigen of the anti-HER2 antibody
Procedure: (§1) Affinity of the prepared variants was measured using Biacore (registered trademark) 8K (GE Healthcare) in the same manner as in Example 1.

[2] = molecular target: T1, HER2; experiment: SPR (Biacore 8K), Example 3, as in Example 1
Procedure: as §1

Kd [1]: 0.0208 nM
B1: 68, 70, 72 variant of humanized anti-HER2 antibody (Fab) (Fab, V domains shown)
VH: EVQLVESGGGLVQPGGSLRLSCAASGFNIKDTYIHWVRQAPGKGLEWVARIYPTNGYTRYADSVKGRFRIRARTSKNTAYLQMNSLRAEDTAVYYCSRWGGDGFYAMDYWGQGTLVTVSS
VL: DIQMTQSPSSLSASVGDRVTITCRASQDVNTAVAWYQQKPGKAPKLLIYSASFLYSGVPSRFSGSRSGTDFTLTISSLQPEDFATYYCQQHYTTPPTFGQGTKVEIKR

Kd [2]: 0.0126 nM
B2: light chain 63, 65, 67/heavy chain 72, 77, 79 variant of the anti-HER2 antibody (Fab, V domains shown)
VH: B1 VH with R69T, R71S, T78R, Y80R
VL: DIQMTQSPSSLSASVGDRVTITCRASQDVNTAVAWYQQKPGKAPKLLIYSASFLYSGVPSRFRGRRRGTDFTLTISSLQPEDFATYYCQQHYTTPPTFGQGTKVEIKR

Kd [1]: 0.0443 nM
B3: 74, 75, 77 variant of humanized anti-HER2 antibody (Fab) (Fab, V domains shown)
VH: B1 VH with R69T, R71S, R73D, S75R, K76R, T78R
VL: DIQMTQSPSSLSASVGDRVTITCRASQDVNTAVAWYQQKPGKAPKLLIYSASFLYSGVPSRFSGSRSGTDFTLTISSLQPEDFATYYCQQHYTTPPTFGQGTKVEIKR

Kd [2]: 0.0357 nM
B4: light chain 63, 65, 67/heavy chain 82B, 83, 84 variant of the anti-HER2 antibody (Fab, V domains shown)
VH: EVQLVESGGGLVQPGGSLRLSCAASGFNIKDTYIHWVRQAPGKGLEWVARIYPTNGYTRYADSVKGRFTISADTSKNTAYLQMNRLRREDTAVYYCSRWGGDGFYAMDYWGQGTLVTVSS
VL: B2 VL

Kd [1]: 0.0211 nM
B5: 84, 85, 87 variant of humanized anti-HER2 antibody (Fab) (Fab, V domains shown)
VH: B1 VH with R69T, R71S, R73D, A88R, E89R, T91R
VL: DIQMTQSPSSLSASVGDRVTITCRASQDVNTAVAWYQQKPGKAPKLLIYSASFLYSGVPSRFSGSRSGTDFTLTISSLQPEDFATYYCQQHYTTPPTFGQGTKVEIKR

Kd [1]: 0.0338 nM
B6: 79, 81, 82A variant of humanized anti-HER2 antibody (Fab) (Fab, V domains shown)
VH: B1 VH with R69T, R71S, R73D, Y80R, Q82R, N84R
VL: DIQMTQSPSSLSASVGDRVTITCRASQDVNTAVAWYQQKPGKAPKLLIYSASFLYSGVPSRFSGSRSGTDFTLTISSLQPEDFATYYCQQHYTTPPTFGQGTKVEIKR

Kd [2]: 0.0321 nM | Kd [1]: 0.00505 nM
B7: 72, 77, 79 variant of humanized anti-HER2 antibody (Fab) (Fab, V domains shown)
VH: B1 VH with R69T, R71S, T78R, Y80R
VL: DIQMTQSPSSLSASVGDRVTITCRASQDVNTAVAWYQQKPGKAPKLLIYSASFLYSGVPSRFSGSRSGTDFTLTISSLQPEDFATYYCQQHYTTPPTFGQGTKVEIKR
notes: also called Heavy chain 72, 77, 79 variant

— patent US20220204649A1 (SYSMEX, published 2022)
